Measurements: PMC8221569
pKd: −log10 of the molar value.

Target: human histones H3.1–H4 tetramer (human) (UniProt P68431)
Assay: ITC; MicroCal PEAQ-ITC, 20°C, 20 mM Tris-HCl pH 7.5, 500 mM NaCl; 300 μM DNAJC9 HBD in the syringe, 30 μM (dimers) H3-H4 in the cell; one set of sites model; n = 3

DNAJC9 HBD (171–249), GST tag removed, sequence (Q8WXX5 171-249): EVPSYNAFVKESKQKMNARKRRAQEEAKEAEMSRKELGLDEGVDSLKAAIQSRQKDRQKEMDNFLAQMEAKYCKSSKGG

pKd: 7.40
Substance: DNAJC9 HBD (171–249), GST tag removed (from UniProt Q8WXX5 171-249) (domain or fragment)
